Reference: article PMC11966780

Legend:
Test in all cases: label-free LC-MS/MS
[1] = biological target: AAV-DJ capsid incorporating VP3 with the ALFAnb inserted at position H631 (AAV-DJ | not stated)
[2] = biological target: AAV-DJ capsid incorporating VP1 with a GFPnb inserted at position H631 (AAV-DJ | not stated)
[3] = biological target: AAV-DJ capsid incorporating VP3 with a GFPnb inserted at position H631 (AAV-DJ | not stated)

Substance | GFP/capsid (GFP-NLS-ALFA proteins per capsid) [1] | GFP/capsid, Rep1 [1] [GFP/capsid] | GFP/capsid, Rep3 [1] [GFP/capsid] | GFP/capsid, avg [1] [GFP/capsid] | GFP/capsid, Rep1 [2] [GFP/capsid] | GFP/capsid, Rep2 [2] [GFP/capsid] | GFP/capsid, Rep3 [2] [GFP/capsid] | GFP/capsid, avg [2] [GFP/capsid] | GFP/capsid (GFP-NLS per capsid) [2] | GFP/capsid (GFP-NLS per capsid) [3] | GFP/capsid, Rep1 [3] [GFP/capsid] | GFP/capsid, Rep2 [3] [GFP/capsid] | GFP/capsid, Rep3 [3] [GFP/capsid]
GFP C-terminally tagged with a c-Myc NLS followed by the ALFA tag | 1 to 9 | 8.63 | 0.3 | 3.35 |  |  |  |  |  |  |  |  | 
green fluorescent protein (GFP) (from UniProt P42212 1-238) (natural protein) |  |  |  |  | 0.89 | 0.73 | 0.33 | 0.65 |  |  |  |  | 
GFP tagged with a c-Myc NLS at the C-terminus |  |  |  |  | 0.89 | 2.27 | 0.81 | 1.33 | 1 to 3 | 3 to 15 | 13.1 | 2.17 | 1.35
